# Test results: patent publication US8557971B2, “Chimeric viral envelopes” (Aarhus Universitet, priority 2006, dated 2013)
# Positions count from the first letter of the chain named.
# B1: SL3-2GI (protein)
# chain: VQHDSPHQVFNVTWRVTNLMTGQTANATSLLGTMTDAFPKLYFDLCDLIGDDWDETGLGCRTPGGRKRARIFDFYVCPGHTVLAGCGGPREGYCGKWGCETTGQAYWKPSSSWDLISLKRGNTPKGQGPCYDSSVVSSSAQGATPGGRCNPLVLEFTDAGKRASWDASKAWGLRLYRSTGIDPVTRFSLTRQVLNIGPRVPIGPNPVIIDQLPPSRPVQIMLPRPPQPPPPGAASTVPETAPPSQQPGTGDRLLNLVNGAYQALNLTSPDKTQECWLCLVAGPPYYEGVAVLGTYSNHTSAPANCSVASQHKLTLSEVTGQGLCVGAVPKTHQALCNTTQKTSNGSYYLAAPAGTIWACNTGLTPCLSTTVLDLTTDYCVLVELWPKVTYHSPGYVYGQFEEKTKYKREPVSLTLALLLGGLTMGGIAAGVGTGTTALVATQQFQQLQAAMQDDLKEVKKSITNLERSLTSLSEVVLQNRRGLDLLFLKEGGLCAALKEECCFYADHTGLVRDSMAKLRERLSQRQKLFESQQGWFEGLFNKSPWFTTLISTIMGPLIILLLILLFGPCILNHLVQFIKDRVSVVQALVLTQQYHQLKTIEDCESRE
# B2: SL3-2/apelin chimeric envelope polypeptide 'AP165 RT' (other)
# chain: VQHDSPHQVFNVTWRVTNLMTGQTANATSLLGTMTDAFPKLYFDLCDLIGDDWDETGLGCRTPGGRKRARIFDFYVCPGHTVLAGCGGPREGYCGKWGCETTGQAYWKPSSSWDLISLKRGNTPKGQGPCYDSSGGSGQRPRLSHKGPMPFSGGSGSSSAQGATPGGRCNPLVLEFTDAGKRASWDASKAWGLRLYRSTRTDPVTRFSLTRQVLNIGPRVPIGPNPVIIDQLPPSRPVQVMLPRPPQPPPPGAASTVPETAPPSQQPGTGDRLLNLVNGAYQALNLTSPDKTQECWLCLVAGPPYYEGVAVLGTYSNHTSAPANCSVASQHKLTLSEVTGQGLCVGAVPKTHQALCNTTQKTSNGSYYLAAPAGTIWACNTGLTPCLSTTVLDLTTDYCVLVELWPKVTYHSPGYVYGQFEEKTKYKREPVSLTLALLLGGLTMGGIAAGVGTGTTALVATQQFQQLQAAMQDDLKEVEKSITNLERSLTSLSEVVLQNRRGLDLLFLKEGGLCAALKEECCFYADHTGLVRDSMAKLRERLSQRQKLFESQQGWFEGLFNKSPWFTTLISTIMGPLIILLLILLFGPCILNHLVQFIKDRVSVVQALVLTQQYHQLKTIEDCESRE
# B3: SL3-2/apelin chimeric envelope AP@165 GI (other)
# chain: B2 chain with R200G, T201I
# B4: SL3-2/apelin chimeric envelope peptide, "Apelin@155 RT" (other)
# chain: VQHDSPHQVFNVTWRVTNLMTGQTANATSLLGTMTDAFPKLYFDLCDLIGDDWDETGLGCRTPGGRKRARIFDFYVCPGHTVLAGCGGPREGYCGKWGCETTGQAYWKPSSSWDLISLKRGNTQGIYQCSGGSGQRPRLSHKGPMPFSGGSGCGPCYDSSVVSSSAQGATPGGRCNPLVLEFTDAGKRASWDASKAWGLRLYRSTRTDPVTRFSLTRQVLNIGPRVPIGPNPVIIDQLPPSRPVQVMLPRPPQPPPPGAASTVPETAPPSQQPGTGDRLLNLVNGAYQALNLTSPDKTQECWLCLVAGPPYYEGVAVLGTYSNHTSAPANCSVASQHKLTLSEVTGQGLCVGAVPKTHQALCNTTQKTSNGSYYLAAPAGTIWACNTGLTPCLSTTVLDLTTDYCVLVELWPKVTYHSPGYVYGQFEEKTKYKREPVSLTLALLLGGLTMGGIAAGVGTGTTALVATQQFQQLQAAMQDDLKEVEKSITNLERSLTSLSEVVLQNRRGLDLLFLKEGGLCAALKEECCFYADHTGLVRDSMAKLRERLSQRQKLFESQQGWFEGLFNKSPWFTTLISTIMGPLIILLLILLFGPCILNHLVQFIKDRVSVVQALVLTQQYHQLKTIEDCESRE
# B5: SL3-2/apelin chimeric envelope peptide, "Apelin@155 GI" (other)
# chain: B4 chain with R206G, T207I
# B6: AP@155: SL3-2 envelope with apelin inserted at position 155 (variant not specified) (protein)
# chain: B4 chain with R206G, T207I
# B7: 155GI (protein)
# chain: B4 chain with R206G, T207I
# Tests used:
# D17 = assay: Titer on D17 dog cells; assay type: cell-based; settings: for Titer, D17: Titer Experiment 1, D17 dog cells
# Procedure: (§1) Transfections were done by calcium phosphate precipitation method, described by Graham and van der Eb (Graham and van der Eb, 1973) leaving the calcium precipitate on the cells for 24 hours. 293T cells were transfected using 8 μg of envelope expression plasmid, 2 μg gagpol expression plasmid (Morita et al., 2000) and 1 μg of an EGFP expressing plasmid. EGFP was included as a visual aid to determine the success of transfections. Medium on the transfected cells was renewed every day until it was used for transduction, usually between 48 and 72 hours after transfection, depending on the number of green fluorescing cells.
# (§2) The day before transduction, medium was changed from fetal calf serum to newborn calf serum containing medium. Semi-packaging cells (Bahrami et al., 2003) were seeded at concentration of 10^4 cells/cm^2 24 hours before transduction.
# (§3) Supernatant from transfected cells was filtered (0.22μ). The supernatant with 6 μg/mL polybrene was added to the target cells. 24 hours later, the infected cells were selected using medium described before containing 600 μg/mL G418 for 10 days.
# human cells = assay: Infection of human cells; assay type: cell-based; settings: qualitative
# APJ = APJ (Homo sapiens (Human), UniProt P35414); assay: cell-based or functional assay
# [1] = molecular target: polytropic Xpr1 receptor on NIH3T3 murine cells (murine, UniProt Q9Z0U0); assay: cell-based or functional assay
# NIH 3T3 = assay: Titer (transduction) of chimeric envelope constructs on NIH 3T3 cells; assay type: cell-based, mouse; settings: Titer Experiment 1; NIH 3T3 mouse cells
# Procedure: as §1, §2, §3
# NIH 3T3 MCF 247 = assay: Titer on NIH 3T3 cells infected with MCF 247 (blocked polytropic receptor); assay type: cell-based, mouse; settings: Titer Experiment 1; NIH 3T3 infected with MCF 247
# Procedure: FIG. 24. The SL3-2 chimeric envelopes can use two different receptors. […] NIH3T3: Murine cells, NIH3T3+MCF247: murine cells infected with MCF247, thus having a blocked polytropic receptor, D17: Dog cells, D17-APJ: Dog cells expressing APJ, D17-APJ-6 uM Apelin 13: Dog cells expressing APJ incubated with 6 uM apelin-13 peptide for 1 h.
# as §1, §2
# Supernatant from transfected cells was filtered (0.22μ). The supernatant with 6 μg/mL polybrene was added to the target cells. […]
# D17 APJ = assay: Titer on D17 cells expressing APJ; assay type: cell-based, dog; settings: for Titer, D17 APJ: Titer Experiment 1, D17 cells expressing APJ
# Procedure: as §1, §2, §3
# The ability of redirecting the retroviral fusion machinery to a desired receptor would have wide biotechnological and potentially also nanotechnological applications. However, the regulatory mechanisms that interconnect receptor binding with fusion are poorly understood, which has made intelligent engineering of the envelope protein difficult. […] Using the envelope protein of the SL3-2 murine leukemia virus isolate (Pedersen et al., 1981) as a backbone and insertion of the 13 amino acid peptide ligand apelin by structure based design, we achieved efficient membrane fusion in a manner dependent upon APJ, the receptor for apelin (Fan et al., 2003; Kawamata et al., 2001) (FIG. 12). APJ belongs to the large family of G-protein-coupled receptors (GPCRs) involved in cell signaling with more than 1000 members in man (Puffer et al., 2000). All GPCRs are characterized by having 7 transmembrane helices (7-TM). Some of the receptors respond to peptide ligands such as apelin. […]
molecule,measurement,setting,value
B1,Infection of dog cells,D17; qualitative,not dog cells
same,Infection of human cells,human cells,infects human cells
B2,Titer on D17 APJ (Titer Experiment 1; unit not given),APJ,2.5e+06
same,Titer on NIH 3T3 (Titer Experiment 1; unit not given),[1],3e+06
B3,Titer on D17 APJ (Titer Experiment 1; unit not given),APJ,1.25e+06
same,Titer on NIH 3T3 (Titer Experiment 1; unit not given),[1],4e+06
same,"Titer, NIH 3T3",NIH 3T3,4 × 10^6
same,"Titer, NIH 3T3 MCF 247",NIH 3T3 MCF 247,0
same,"Titer, D17",D17,1.25 × 10^1
same,"Titer, D17 APJ",D17 APJ,1.25 × 10^6
B4,Titer on D17 APJ (Titer Experiment 1; unit not given),APJ,1750
same,Titer on NIH 3T3 (Titer Experiment 1; unit not given),[1],500000
B5,Titer on D17 APJ (Titer Experiment 1; unit not given),APJ,400
same,Titer on NIH 3T3 (Titer Experiment 1; unit not given),[1],750000
B6,APJ-dependent entry / membrane fusion into D17 dog cells,"D17 APJ; qualitative, FIG. 12",suboptimal relative to AP@165
B7,"Titer, NIH 3T3",NIH 3T3,7.5 × 10^5
same,"Titer, NIH 3T3 MCF 247",NIH 3T3 MCF 247,0.25 × 10^1
same,"Titer, D17",D17,2.5
same,"Titer, D17 APJ",D17 APJ,4 × 10^2
